# The supplement of paper PMC6757056
# ± gives the standard deviation of the averaged measurements.
# B1: library; a variant is named by its letters at N, in order (parent)
# chain: GCUGUCACCGAGAAACUGUGAAGUAUAUCUUAAACCUGGGCACUUAAAAGAUAUAUGGAGUUAGUAGUGCAACCUGCUCGGUCUGAUGAGUCCNNNNNNGGACGAAACAGC
# Experiments:
# cyclic di-GMP [1] = variants of: B1; experiment: FACS-Seq fitted mean relative fluorescence mCherry/BFP without ligand (log10 relative fluorescence); HEK293T; ligand: cyclic di-GMP (c-di-GMP-II aptamer); higher = higher reporter protein expression; details: ligand present: no
# Procedure, shortened: (§1)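 With or without ligand for 48 h, enriched HEK293T libraries carrying a lentiviral ribozyme-switch mCherry reporter and EF1α-BFP were sorted into 6 mCherry/BFP bins. Bin genomic DNA was amplified by PCR, barcoded and sequenced on MiSeq. Fluorescence was taken from normal fits to the resulting bin counts. Each fitted mean of log10(mCherry/BFP) was scaled to five spiked-in control ribozymes.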
# cyclic di-GMP [2] = variants of: B1; experiment: normalized RNA/DNA level without ligand (relative to sTRSVctl = 100) (log10 (% of sTRSVctl)); HEK293T; ligand: cyclic di-GMP (c-di-GMP-II aptamer); higher = less ribozyme self-cleavage, higher mRNA level; details: reporter: mCherry (pCS4076), ligand present: no
# Procedure: (§2)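 Hammerhead (sTRSV) ribozyme switch libraries with a ligand aptamer grafted on stem I and a randomized N4-6 loop II, cloned into the 3' UTR of mCherry and transiently transfected into HEK293T cells; RNA-Seq 72 h post transfection with ligand added 1 h before transfection; RNA read count / plasmid DNA read count normalized to the non-cleaving sTRSVctl (x100), log10; sequences with >100 DNA reads. FACS-Seq: lentiviral library sorted into 6 bins after 48 h ligand, log-normal fit mean of mCherry/BFP scaled to controls. Printed sequences are partial switch sequences.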
# cyclic di-GMP [3] = variants of: B1; experiment: FACS-Seq fitted mean relative fluorescence mCherry/BFP with ligand (log10 relative fluorescence); HEK293T; ligand: cyclic di-GMP (c-di-GMP-II aptamer); ligand concentration (+) FACS-Seq: 1 mM; higher = higher reporter protein expression; details: ligand present: yes
# Procedure, shortened: as §1
# cyclic di-GMP [4] = variants of: B1; experiment: normalized RNA/DNA level with ligand (relative to sTRSVctl = 100) (log10 (% of sTRSVctl)); HEK293T; ligand: cyclic di-GMP (c-di-GMP-II aptamer); ligand concentration (+) RNA-Seq: 1 mM; higher = less ribozyme self-cleavage, higher mRNA level; details: reporter: mCherry (pCS4076), ligand present: yes
# Procedure: as §2
Variant,FACS-Seq fitted mean (log10) (cyclic di-GMP [1]),normalized RNA/DNA level without ligand (log10) (cyclic di-GMP [2]),FACS-Seq fitted mean (log10) (cyclic di-GMP [3]),normalized RNA/DNA level with ligand (log10) (cyclic di-GMP [4])
CGACUA,-0.6395 ± 0.004,1.35 ± 0.17,-0.239 ± 0.0063,1.48 ± 0.053
CGACUG,-0.0298 ± 0.017,1.703 ± 0.0006,0.297 ± 0.061,1.83 ± 0.074
CCGAGA,-0.211 ± 0.078,1.46 ± 0.11,0.0834 ± 0.071,1.66 ± 0.086
UGAUGU,-0.179 ± 0.057,1.63 ± 0.052,0.187 ± 0.058,1.84 ± 0.089
GCAUCU,-1.08 ± 0.08,1.614 ± 0.0091,-0.903 ± 0.025,1.79 ± 0.094
AGUUAG,-0.315 ± 0.053,1.54 ± 0.059,-0.0278 ± 0.059,1.75 ± 0.11
GUAUAG,-1.32 ± 0.018,1.56 ± 0.12,-1.05 ± 0.12,1.74 ± 0.063
CACAGU,-0.189 ± 0.13,1.74 ± 0.045,0.105 ± 0.062,1.85 ± 0.064
AGUGCA,-0.382 ± 0.034,1.61 ± 0.046,-0.043 ± 0.018,1.79 ± 0.096
GCACUA,-0.172 ± 0.017,1.48 ± 0.023,0.225 ± 0.12,1.75 ± 0.062
GACAAG,-0.339 ± 0.07,1.55 ± 0.029,-0.0999 ± 0.034,1.72 ± 0.084
GACAAC,-0.156 ± 0.0096,1.63 ± 0.022,0.197 ± 0.1,1.82 ± 0.12
CUCUAC,-0.26 ± 0.15,1.69 ± 0.038,-0.0375 ± 0.07,1.82 ± 0.11
CCCCAU,-0.0362 ± 0.2,1.68 ± 0.022,0.163 ± 0.051,1.83 ± 0.11
GAGAAG,-0.283 ± 0.064,1.71 ± 0.038,-0.00672 ± 0.064,1.79 ± 0.12
CACACA,-0.628 ± 0.032,1.45 ± 0.11,-0.354 ± 0.056,1.64 ± 0.089
AUUGGA,-0.489 ± 0.028,1.45 ± 0.099,-0.102 ± 0.071,1.62 ± 0.1
AACCAA,-0.517 ± 0.035,1.43 ± 0.082,-0.235 ± 0.052,1.63 ± 0.1

Variant,FACS-Seq fitted mean (log10) (cyclic di-GMP [1]),normalized RNA/DNA level without ligand (log10) (cyclic di-GMP [2]),FACS-Seq fitted mean (log10) (cyclic di-GMP [3]),normalized RNA/DNA level with ligand (log10) (cyclic di-GMP [4])
CGGCCA,-0.425 ± 0.033,1.57 ± 0.099,-0.137 ± 0.0032,1.73 ± 0.11
CGGAUA,-0.243 ± 0.057,1.19 ± 0.13,0.0478 ± 0.023,1.3 ± 0.1
CUGAUG,-0.749 ± 0.029,1.39 ± 0.12,-0.5264 ± 0.0006,1.58 ± 0.081
UGCUUU,0.0721 ± 0.19,1.73 ± 0.025,0.309 ± 0.091,1.87 ± 0.11
AAAGGA,-0.691 ± 0.009,1.31 ± 0.13,-0.5317 ± 0.0025,1.47 ± 0.11
AUAGGU,-0.384 ± 0.071,1.51 ± 0.061,-0.171 ± 0.092,1.69 ± 0.14
UCGAAA,-0.535 ± 0.0031,1.32 ± 0.069,-0.158 ± 0.043,1.58 ± 0.12
UCGCCA,0.132 ± 0.027,1.71 ± 0.032,0.335 ± 0.037,1.88 ± 0.073
CCAGAC,-0.24 ± 0.11,1.631 ± 0.0075,0.128 ± 0.0098,1.83 ± 0.16
AAUAGA,-0.609 ± 0.01,1.39 ± 0.12,-0.411 ± 0.015,1.58 ± 0.08
AACACA,-0.289 ± 0.0062,1.54 ± 0.031,-0.0564 ± 0.0031,1.75 ± 0.12
UUUUCG,-0.162 ± 0.14,1.78 ± 0.035,0.00347 ± 0.15,1.9 ± 0.12
UGUGGG,-0.327 ± 0.023,1.74 ± 0.03,-0.0766 ± 0.022,1.86 ± 0.12
GAGAUU,-0.388 ± 0.22,1.71 ± 0.035,-0.0338 ± 0.038,1.82 ± 0.1
UAACUC,-0.459 ± 0.11,1.78 ± 0.016,-0.294 ± 0.11,1.88 ± 0.085
UCUGAA,-0.341 ± 0.042,1.51 ± 0.079,-0.0714 ± 0.032,1.73 ± 0.099
UCUGAU,-0.331 ± 0.024,1.6 ± 0.061,-0.0535 ± 0.0022,1.83 ± 0.14
CGUCUC,0.2 ± 0.16,1.766 ± 0.015,0.3267 ± 0.0019,1.87 ± 0.11
